Tests used:
[1] = molecular target: MeCP2 MBD;histone octamer (Homo sapiens;, UniProt P51608;P0C0S8;P62807;P68431;P62805 77-167;2-130;2-126;2-136;2-103, |H2B T115C;H3.1 C96S;C110A); test: EMSA; 20 mM HEPES pH 7.5, 75 mM NaCl, 125 mM KCl, 50 uM EDTA, 2.5 mM beta-mercaptoethanol, 5% glycerol, BSA, 1.58 uM 47 bp competitor DNA (nucleosome assays); absent w
[2] = molecular target: MeCP2 full-length, e2 isoform;histone octamer (Homo sapiens;, UniProt P51608;P0C0S8;P62807;P68431;P62805 1-486;2-130;2-126;2-136;2-103, |H2B T115C;H3.1 C96S;C110A); test: as above
[3] = molecular target: MeCP2 R133G;histone octamer (Homo sapiens;, UniProt P51608;P0C0S8;P62807;P68431;P62805 1-486;2-130;2-126;2-136;2-103, R133G|H2B T115C;H3.1 C96S;C110A); test: as above
[4] = molecular target: MeCP2 AT-DIRmut;histone octamer (Homo sapiens;, UniProt P51608;P0C0S8;P62807;P68431;P62805 1-486;2-130;2-126;2-136;2-103, R188G;R190G;K254N;K256N;R268Q|H2B T115C;H3.1 C96S;C110A); test: as above
[5] = molecular target: HisMBP-MeCP2 205-257 (DIR);histone octamer (Homo sapiens;, UniProt P51608;P0C0S8;P62807;P68431;P62805 205-257;2-130;2-126;2-136;2-103, |H2B T115C;H3.1 C96S;C110A); test: as above
[6] = molecular target: HisMBP-MeCP2 162-309;histone octamer (Homo sapiens;, UniProt P51608;P0C0S8;P62807;P68431;P62805 162-309;2-130;2-126;2-136;2-103, |H2B T115C;H3.1 C96S;C110A); test: as above
[7] = molecular target: MeCP2 full-length, e2 isoform;histone H1.0;histone octamer (Homo sapiens;Homo sapiens;, UniProt P51608;P07305;P0C0S8;P62807;P68431;P62805 1-486;1-194;2-130;2-126;2-136;2-103, ||H2B T115C;H3.1 C96S;C110A); test: EMSA; histone H1.0 pre-bound (chromatosome); 20 mM HEPES pH 7.5, 75 mM NaCl, 125 mM KCl, 50 uM EDTA, 2.5 mM beta-mercaptoethanol, 5% glycerol, BSA, 1.58 uM 47 bp competitor DNA (nucleosome assays); absent w
[8] = molecular target: HisMBP-MeCP2 162-309;histone octamer, acidic patch mutant (Homo sapiens;Homo sapiens, UniProt P51608;P0C0S8;P62807;P68431;P62805 162-309;2-130;2-126;2-136;2-103, |H2A E61A;E91A;E92A;H2B E113A;H3.1 C96S;C110A); test: EMSA; acidic patch mutant histone octamer; 20 mM HEPES pH 7.5, 75 mM NaCl, 125 mM KCl, 50 uM EDTA, 2.5 mM beta-mercaptoethanol, 5% glycerol, BSA, 1.58 uM 47 bp competitor DNA (nucleosome assays); absent w
[9] = molecular target: HisMBP-MeCP2 162-309;histone octamer (Homo sapiens;Homo sapiens, UniProt P51608;P0C0S8;P62807;P68431;P62805 162-309;2-130;2-126;2-136;2-103, |H3.1 C96S;C110A); test: EMSA; 20 mM HEPES pH 7.5, 75 mM NaCl, 125 mM KCl, 50 uM EDTA, 2.5 mM beta-mercaptoethanol, 5% glycerol, BSA, 1.58 uM 47 bp competitor DNA (nucleosome assays); absent w
[10] = molecular target: HisMBP-MeCP2 205-257 (DIR) (Homo sapiens, UniProt P51608 205-257); test: EMSA; 20 mM HEPES pH 7.5, 75 mM NaCl, 125 mM KCl, 50 uM EDTA, 2.5 mM beta-mercaptoethanol, 5% glycerol, BSA, 1.58 uM 47 bp competitor DNA (nucleosome assays; absent with free DNA), room temperature 30 min; details: protein: recombinant; tags: His-MBP; label: 5' 6-FAM; blunt
[11] = molecular target: MeCP2 full-length, e2 isoform;histone octamer, tailless H3 (Homo sapiens;Homo sapiens, UniProt P51608;P0C0S8;P62807;P68431;P62805 1-486;2-130;2-126;26-136;2-103, |H3.1 del1-24;A25C;C96S;C110A); test: EMSA; H3-tailless histone octamer; 20 mM HEPES pH 7.5, 75 mM NaCl, 125 mM KCl, 50 uM EDTA, 2.5 mM beta-mercaptoethanol, 5% glycerol, BSA, 1.58 uM 47 bp competitor DNA (nucleosome assays); absent w

Binder	Kd [1]	Kd [2]	Kd [3]	Kd [4]	Kd [5]	Kd [6]	Kd [8]	Kd [11]	other results
15-N601-15 nucleosome unmethylated (nucleosome) DNA 1: ATGGAACACATTGCACAGGATGTATATATCTGACACGTGCCTGGAGACTAGGGAGTAATCCCCTTGGCGGTTAAAACGCGGGGGACAGCGCGTACGTGCGTTTAAGCGGTGCTAGAGCTGTCTACGACCAATTGAGCGGCCTCGGCACCGGGATTCTCCAGGGCGGCCGCGTATT DNA 2: AATACGCGGCCGCCCTGGAGAATCCCGGTGCCGAGGCCGCTCAATTGGTCGTAGACAGCTCTAGCACCGCTTAAACGCACGTACGCGCTGTCCCCCGCGTTTTAACCGCCAAGGGGATTACTCCCTAGTCTCCAGGCACGTGTCAGATATATACATCCTGTGCAATGTGTTCCAT	1000 nM	220 nM	596 nM	85.2 nM	581 nM	240 nM	217 nM		binding result [7]: no binding
16-N603-30 nucleosome unmethylated (nucleosome) DNA 1: GAGCCACAAAATCACCGACGCTCACGGGTGCCCAGTTCGCGCGCCCACCTACCGTGTGAAGTCGTCACTCGGGCTTCTAAGTACGCTTAGCGCACGGTAGAGCGCAATCCAAGGCTAACCACCGTGCATCGATGTTGAAAGAGGCCCTCCGTCCTTATTACTTCAAGTCCCTGGGGTACCCGTTTCACTGCCA DNA 2: TGGCAGTGAAACGGGTACCCCAGGGACTTGAAGTAATAAGGACGGAGGGCCTCTTTCAACATCGATGCACGGTGGTTAGCCTTGGATTGCGCTCTACCGTGCGCTAAGCGTACTTAGAAGCCCGAGTGACGACTTCACACGGTAGGTGGGCGCGCGAACTGGGCACCCGTGAGCGTCGGTGATTTTGTGGCTC	716 nM	94.9 nM	188 nM	41.5 nM	298 nM	94.6 nM			
N601 nucleosome core particle unmethylated (nucleosome) DNA 1: CAGGATGTATATATCTGACACGTGCCTGGAGACTAGGGAGTAATCCCCTTGGCGGTTAAAACGCGGGGGACAGCGCGTACGTGCGTTTAAGCGGTGCTAGAGCTGTCTACGACCAATTGAGCGGCCTCGGCACCGGGATTCTCCA DNA 2: TGGAGAATCCCGGTGCCGAGGCCGCTCAATTGGTCGTAGACAGCTCTAGCACCGCTTAAACGCACGTACGCGCTGTCCCCCGCGTTTTAACCGCCAAGGGGATTACTCCCTAGTCTCCAGGCACGTGTCAGATATATACATCCTG					1970 nM	734 nM	1830 nM		Kd [9]: 786 nM; binding result [2]: no binding
20 bp dsDNA (dsDNA) DNA 1: AATACGCGGCCGCCCTGGAG DNA 2: CTCCAGGGCGGCCGCGTATT									Kd [10]: 814 ± 50.1 nM
N603-30 nucleosome 91 meCpA (nucleosome, asymmetric meCpA at 91) DNA 1: GAGCCACAAAATCACCGACGCTCACGGGTGCCCAGTTCGCGCGCCCACCTACCGTGTGAAGTCGTCACTCGGGCTTCTAAGTACGCTTAGCGCACGGTAGAGCGCAATCCAAGGCTAACCACCGTGCATCGATGTTGAAAGAGGCCCTCCGTCCTTATTACTTCAAGTCCCTGGGGT DNA 2: ACCCCAGGGACTTGAAGTAATAAGGACGGAGGGCCTCTTTCAACATCGATGCACGGTGGTTAGCCTTGGATTGCGCTCTACCGTGCGCTAAGCGTACTTAGAAGCCCGAGTGACGACTTCACACGGTAGGTGGGCGCGCGAACTGGGCACCCGTGAGCGTCGGTGATTTTGTGGCTC		61.4 nM						47 nM	
N603-30 nucleosome (single 30 bp linker) (nucleosome) DNA 1: GAGCCACAAAATCACCGACGCTCACGGGTGCCCAGTTCGCGCGCCCACCTACCGTGTGAAGTCGTCACTCGGGCTTCTAAGTACGCTTAGCGCACGGTAGAGCGCAATCCAAGGCTAACCACCGTGCATCGATGTTGAAAGAGGCCCTCCGTCCTTATTACTTCAAGTCCCTGGGGT DNA 2: ACCCCAGGGACTTGAAGTAATAAGGACGGAGGGCCTCTTTCAACATCGATGCACGGTGGTTAGCCTTGGATTGCGCTCTACCGTGCGCTAAGCGTACTTAGAAGCCCGAGTGACGACTTCACACGGTAGGTGGGCGCGCGAACTGGGCACCCGTGAGCGTCGGTGATTTTGTGGCTC		102 nM						86.9 nM	

Reference: paper PMC13276077
